Literature values, collected in article PMC8588233.
Like-named read-outs stand apart in the source and are kept apart here.

Legend:
[1] = molecular target: HER2 (Homo sapiens) (UniProt P04626)
[2] = molecular target: HER2 (Homo sapiens) (UniProt P04626); remark: listed apart in the source
[3] = molecular target: HER2 (Homo sapiens) (UniProt P04626); remark: listed apart in the source

Question: Which Kd [1] does the source give for AHNP here?
Answer: 395 nM

Question: For KCCYSL peptide, which Kd [2] is on record?
Answer: 295 nM

Question: Which Kd [3] does the source give for AHNP (111In-DTPA-peptide-PEG) here?
Answer: 300 nM
